From EP4722228A1 (The University of Tokyo, dated 2024)
Bridge positions count the residues as written; N and C are the ends. Square brackets hold non-standard residues; d marks the D form. Ends that are not written are not given here.

Columns and labels:
[1] = biological target: Fc-tagged mouse MuSK extracellular domain (mouse); assay: SPR (Biacore T200), Fc-tagged mouse MuSK on Protein G/A chip, 1:1 fit
[2] = biological target: T1, Recombinant Rat MuSK Fc Chimera Protein (catalog number: 9847-MK-050, R&D Systems) (rat, UniProt Q62838 22-494); assay: SPR (Biacore T200), Fc-tagged rat MuSK on Protein G/A chip, 1:1 fit
T1 construct: Bought reagent; also called Fc-tagged rat MuSK; not shown: Fc protein of the bought chimera
T1 sequence (looked up): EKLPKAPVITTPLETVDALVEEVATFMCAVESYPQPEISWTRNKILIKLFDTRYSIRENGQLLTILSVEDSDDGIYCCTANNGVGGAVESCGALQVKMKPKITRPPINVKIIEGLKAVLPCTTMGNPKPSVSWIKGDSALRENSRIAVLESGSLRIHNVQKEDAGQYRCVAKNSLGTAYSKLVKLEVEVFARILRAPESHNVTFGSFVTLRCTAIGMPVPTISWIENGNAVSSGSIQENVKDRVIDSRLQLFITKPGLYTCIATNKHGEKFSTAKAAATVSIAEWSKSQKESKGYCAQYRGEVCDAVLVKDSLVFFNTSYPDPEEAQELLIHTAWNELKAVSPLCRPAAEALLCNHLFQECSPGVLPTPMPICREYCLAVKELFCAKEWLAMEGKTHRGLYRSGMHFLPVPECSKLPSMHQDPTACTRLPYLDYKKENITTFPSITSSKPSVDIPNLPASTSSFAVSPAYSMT

Fc-tagged mouse MuSK extracellular domain (mouse), sequence (chain, as listed by the source limits assumed): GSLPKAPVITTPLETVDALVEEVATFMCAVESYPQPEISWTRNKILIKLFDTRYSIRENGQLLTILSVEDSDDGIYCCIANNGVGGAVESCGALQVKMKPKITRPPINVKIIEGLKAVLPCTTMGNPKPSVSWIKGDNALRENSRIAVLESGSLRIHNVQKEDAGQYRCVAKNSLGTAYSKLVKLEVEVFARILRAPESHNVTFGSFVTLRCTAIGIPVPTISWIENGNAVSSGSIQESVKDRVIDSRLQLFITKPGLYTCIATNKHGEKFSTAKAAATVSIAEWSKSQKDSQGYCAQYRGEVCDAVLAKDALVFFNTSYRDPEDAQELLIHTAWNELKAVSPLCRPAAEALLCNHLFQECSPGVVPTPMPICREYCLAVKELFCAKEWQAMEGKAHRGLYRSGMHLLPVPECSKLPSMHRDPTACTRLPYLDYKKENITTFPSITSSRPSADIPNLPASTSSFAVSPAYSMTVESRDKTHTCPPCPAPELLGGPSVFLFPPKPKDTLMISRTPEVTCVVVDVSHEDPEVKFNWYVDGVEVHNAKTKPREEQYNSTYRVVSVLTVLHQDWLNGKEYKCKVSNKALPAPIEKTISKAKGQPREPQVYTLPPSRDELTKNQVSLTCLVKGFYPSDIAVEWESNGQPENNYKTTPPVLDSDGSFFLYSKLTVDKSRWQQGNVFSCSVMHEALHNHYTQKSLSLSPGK

Kd [1]: 8.8 nM | Kd [2]: 2 nM
B1: Homodimer of MuSK7 with an introduced palmitoyl group (MuSK7-pal) (peptide)
peptide: {CH2CO}-[dY]PSYHTNVVASLKRC
modifications: thioether N-15; also: homodimer: two peptides condensed via C-terminal Cys carboxyl with linking unit bearing palmitic acid
notes: also called Dimeric peptide
